Broadly, the Kd is the equilibrium constant for the complex coming apart. High values mean a looser complex, low ones a tighter complex.

The assay concerns the target T1, human FcRn (soluble human FcRn complexed with β2-microglobulin) (human, UniProt P61769 21-119, limits assumed).
T1 construct: also called hFcRn
Description: SPR, pH 7.0.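 Also: antibodies captured on a Protein L sensor chip with human FcRn injected as analyte, KD calculated from fitted association and dissociation rate constants.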 Background: SPR reads the build-up and loss of mass on a sensor chip optically.

Positions count from the first letter of the chain named.

T1 sequence (chain, as listed by the source limits assumed, chain 1 of 2): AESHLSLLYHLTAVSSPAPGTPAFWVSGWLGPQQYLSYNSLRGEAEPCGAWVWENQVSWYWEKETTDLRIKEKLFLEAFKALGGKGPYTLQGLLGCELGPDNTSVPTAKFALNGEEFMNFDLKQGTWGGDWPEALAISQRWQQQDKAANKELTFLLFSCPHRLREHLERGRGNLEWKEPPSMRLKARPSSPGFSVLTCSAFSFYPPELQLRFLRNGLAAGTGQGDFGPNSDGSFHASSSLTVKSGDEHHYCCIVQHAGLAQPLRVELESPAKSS
T1 sequence (P61769 21-119 limits assumed, chain 2 of 2): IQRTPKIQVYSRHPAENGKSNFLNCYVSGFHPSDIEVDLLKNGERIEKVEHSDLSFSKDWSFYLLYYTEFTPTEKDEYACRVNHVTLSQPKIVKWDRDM
Description: A kinetic analysis of binding between human FcRn and the aforementioned antibodies was carried out using the BIACORE™ T100 or T200 surface plasmon resonance system (GE Healthcare). The antibodies being tested were captured on the CM4 Sensor Chip (GE Healthcare) on which a suitable amount of Protein L (ACTIGEN® protein (Alltech)) was suitably immobilized by amine coupling. Next, diluted human FcRn and a running buffer used as a blank were injected to allow the human FcRn to interact with the antibody captured on the sensor chip. A buffer consisting of 50 mmol/L sodium phosphate, 150 mmol/L NaCl and 0.05% (w/v) polysorbate 20 (Tween 20®) (pH 7.0 or pH 7.4) was used for the running buffer, and each buffer was also used to dilute the human FcRn. 10 mmol/L glycine-HCl (pH 1.5) was used to regenerate the sensor chip. All measurements of binding were carried out at 25° C. The KD(M) of each antibody to human FcRn was calculated based on kinetics parameters, i.e., the association rate constant ka (1/Ms) and the dissociation rate constant kd (1/s) calculated from a sensorgram obtained by the measurement. The BIACORE™ T100 or T200 Evaluation Software (GE Healthcare) was used to calculate each parameter.

B1: IgG1-F637 (antibody)
heavy: QVQLQESGPGLVKPSETLSLTCAVSGHSISHDHAWSWVRQPPGEGLEWIGFISYSGITNYNPSLQGRVTISRDNSKNTLYLQMNSLRAEDTAVYYCARSLARTTAMDYWGEGTLVTVSSASTKGPSVFPLAPSSKSTSGGTAALGCLVKDYFPEPVTVSWNSGALTSGVHTFPAVLQSSGLYSLSSVVTVPSSSLGTQTYICNVNHKPSNTKVDKKVEPKSCDKTHTCPPCPAPELLGGPSVFLFPPKPKDTLYISRTPEVTCVVVDVSHEDPEVKFNWYVDGVEVHNASTKPREEQYNSTYRVVSVLTPLHQDWLNGKEYKCKVSNKALPAPIEKTISKAKGQPREPQVYTLPPSRDELTKNQVSLTCLVKGFYPSDIAVEWESNGQPENNYKTTPPVLDSDGSFFLYSKLTVDKSRWQQGNVFSCSVMHEALHYHYTQKSLSLSP
light: not shown
notes: EU numbering; copies: 2 + 2
With B1, the Kd is 150 nM.

B2: IgG1-F659 (antibody)
heavy: B1 heavy with P240R, S241K, S290K
light: not shown
notes: EU numbering; copies: 2 + 2
B2: the Kd is 30 nM.

B3: IgG1-F652 (antibody)
heavy: B1 heavy with P240D, S290K, P310V
light: not shown
notes: copies: 2 + 2
The molecule B3 showed a Kd of 240 nM.

B4: IgG1-F687 (antibody)
heavy: B1 heavy with S290I
light: not shown
notes: EU numbering; copies: 2 + 2
Molecule B4 displayed a Kd of 49 nM.

B5: IgG1-F678 (antibody)
heavy: B1 heavy with N288V, S290K
light: not shown
notes: EU numbering; copies: 2 + 2
In turn, B5 gave a Kd of 33 nM.

B6: IgG1-F646 (antibody)
heavy: B1 heavy with S241K, S290K, N299A
light: not shown
notes: EU numbering; copies: 2 + 2
B6: the Kd is 38 nM.

B7: IgG1-F655 (antibody)
heavy: B1 heavy with L237R, S241K, S290K
light: not shown
notes: EU numbering; copies: 2 + 2
In the case of B7, binding was put at a Kd of 34 nM. The Kd values of the last two molecules are within 1.5-fold of each other.

B8: IgG1-F665 (antibody)
heavy: B1 heavy with N288D, S290K
light: not shown
notes: EU numbering; copies: 2 + 2
For the molecule B8, the Kd stood at 20 nM.

B9: IgG1-F644 (antibody)
heavy: B1 heavy with G238R, S241K, S290K
light: not shown
notes: EU numbering; copies: 2 + 2
Molecule B9 gave a Kd of 30 nM.

B10: IgG1-F656 (antibody)
heavy: B1 heavy with G239K, S241K, S290K
light: not shown
notes: EU numbering; copies: 2 + 2
In turn, B10 showed a dissociation constant Kd of 33 nM. The Kd values of the last two molecules are within 1.5-fold of each other.

B11: IgG1-F657 (antibody)
heavy: B1 heavy with G239R, S241K, S290K
light: not shown
notes: EU numbering; copies: 2 + 2
B11 came in with a Kd of 32 nM.

B12: IgG1-F664 (antibody)
heavy: B1 heavy with N288A, S290K
light: not shown
notes: EU numbering; copies: 2 + 2
B12 had a Kd of 39 nM.

B13: IgG1-F691 (antibody)
heavy: B1 heavy with S290P
light: not shown
notes: EU numbering; copies: 2 + 2
As for B13, the affinity, expressed as Kd, was 320 nM.

B14: IgG1-F671 (antibody)
heavy: B1 heavy with N288L, S290K
light: not shown
notes: EU numbering; copies: 2 + 2
B14: the Kd was 22 nM.

B15: IgG1-F673 (antibody)
heavy: B1 heavy with N288P, S290K
light: not shown
notes: EU numbering; copies: 2 + 2
In the case of B15, the Kd worked out at 23 nM.

B16: IgG1-F658 (antibody)
heavy: B1 heavy with P240K, S241K, S290K
light: not shown
notes: EU numbering; copies: 2 + 2
B16 returned a Kd of 32 nM.

B17: IgG1-F670 (antibody)
heavy: B1 heavy with N288K, S290K
light: not shown
notes: EU numbering; copies: 2 + 2
In the case of B17, the affinity, expressed as Kd, was 210 nM.

B18: IgG1-F643 (antibody)
heavy: B1 heavy with L237G, G238R, S241K, S290K
light: not shown
notes: EU numbering; copies: 2 + 2
As for B18, binding was put at a Kd of 32 nM.

B19: IgG1-F675 (antibody)
heavy: B1 heavy with N288R, S290K
light: not shown
notes: EU numbering; copies: 2 + 2
In turn, B19 came in with a Kd of 51 nM. Compared with the last molecule, the Kd is about 1.6-fold higher.

B20: IgG1-F663 (antibody)
heavy: B1 heavy with S241K, N288E, S290K, T309Q, Q313A
light: not shown
notes: EU numbering; copies: 2 + 2
The molecule B20 showed a Kd of 6.4 nM.

B21: IgG1-F694 (antibody)
heavy: B1 heavy with S290V
light: not shown
notes: EU numbering; copies: 2 + 2
B21 yielded a Kd of 47 nM.

B22: IgG1-F666 (antibody)
heavy: B1 heavy with N288F, S290K
light: not shown
notes: EU numbering; copies: 2 + 2
B22 had an equilibrium dissociation constant (Kd) of 21 nM.

B23: IgG1-F647 (antibody)
heavy: B1 heavy with P240D, S290K
light: not shown
notes: EU numbering; copies: 2 + 2
As for B23, the Kd is 29 nM.

B24: IgG1-F693 (antibody)
heavy: B1 heavy with S290R
light: not shown
notes: EU numbering; copies: 2 + 2
On to B24, for which the affinity, expressed as Kd, was 36 nM.

B25: IgG1-F660 (antibody)
heavy: B1 heavy with S241K, S290K, P331K
light: not shown
notes: EU numbering; copies: 2 + 2
Molecule B25 yielded a Kd of 31 nM.

B26: IgG1-F690 (antibody)
heavy: B1 heavy with S290N
light: not shown
notes: EU numbering; copies: 2 + 2
B26 displayed a Kd of 100 nM.

B27: IgG1-F654 (antibody)
heavy: B1 heavy with L237K, S241K, S290K
light: not shown
notes: EU numbering; copies: 2 + 2
In the case of B27, the dissociation constant (Kd) is 32 nM.

B28: IgG1-F650 (antibody)
heavy: B1 heavy with S241K, T258E, S290K, P310V
light: not shown
notes: EU numbering; copies: 2 + 2
Consider B28, for which the dissociation constant (Kd) worked out at 170 nM.

B29: IgG1-F689 (antibody)
heavy: B1 heavy with S290M
light: not shown
notes: EU numbering; copies: 2 + 2
B29 showed a Kd of 41 nM.

B30: IgG1-F685 (antibody)
heavy: B1 heavy with S290G
light: not shown
notes: EU numbering; copies: 2 + 2
For B30, the affinity, expressed as Kd, was 53 nM. This Kd and that of the molecule before are within 1.5-fold of each other.

B31: IgG1-F688 (antibody)
heavy: B1 heavy with S290L
light: not shown
notes: EU numbering; copies: 2 + 2
In turn, B31 displayed a Kd of 28 nM.

B32: IgG1-F638 (antibody)
heavy: B1 heavy with S241K
light: not shown
notes: EU numbering; copies: 2 + 2
In the case of B32, the affinity, expressed as Kd, was 140 nM.

B33: IgG1-F640 (antibody)
heavy: B1 heavy with S241K, S290K, G387R
light: not shown
notes: EU numbering; copies: 2 + 2
Take B33: the Kd was 36 nM.

B34: IgG1-F651 (antibody)
heavy: B1 heavy with S241K, S290K, P310V, Q313A
light: not shown
notes: EU numbering; copies: 2 + 2
As for B34, the Kd was 180 nM.

B35: IgG1-F674 (antibody)
heavy: B1 heavy with N288Q, S290K
light: not shown
notes: EU numbering; copies: 2 + 2
Molecule B35 showed a Kd of 32 nM.

B36: IgG1-F681 (antibody)
heavy: B1 heavy with S290A
light: not shown
notes: EU numbering; copies: 2 + 2
B36 gave a Kd of 49 nM.

B37: IgG1-F682 (antibody)
heavy: B1 heavy with S290D
light: not shown
notes: EU numbering; copies: 2 + 2
Regarding B37, binding was put at a Kd of 82 nM.

B38: IgG1-F639 (antibody)
heavy: B1 heavy with S290K, G387R
light: not shown
notes: EU numbering; copies: 2 + 2
With B38, binding was put at a Kd of 27 nM. This Kd is about 3-fold lower than that of the molecule before.

B39: IgG1-F680 (antibody)
heavy: B1 heavy with N288Y, S290K
light: not shown
notes: EU numbering; copies: 2 + 2
On to B39, for which the dissociation constant (Kd) was 15 nM.

B40: IgG1-F669 (antibody)
heavy: B1 heavy with N288I, S290K
light: not shown
notes: EU numbering; copies: 2 + 2
As to B40, the Kd is 35 nM.

B41: IgG1-F684 (antibody)
heavy: B1 heavy with S290F
light: not shown
notes: EU numbering; copies: 2 + 2
Turning to B41, binding was put at a Kd of 51 nM.

B42: IgG1-F661 (antibody)
heavy: B1 heavy with S241K, S290K, P331R
light: not shown
notes: EU numbering; copies: 2 + 2
The molecule B42 gave a Kd of 34 nM.

B43: IgG1-F649 (antibody)
heavy: B1 heavy with S241K, N288E, S290K, P310V
light: not shown
notes: EU numbering; copies: 2 + 2
B43 came in with a Kd of 120 nM.

B44: IgG1-F686 (antibody)
heavy: B1 heavy with S290H
light: not shown
notes: EU numbering; copies: 2 + 2
In turn, B44 had a Kd of 46 nM.

B45: IgG1-F677 (antibody)
heavy: B1 heavy with N288T, S290K
light: not shown
notes: EU numbering; copies: 2 + 2
The molecule B45 displayed a Kd of 47 nM.

B46: IgG1-F679 (antibody)
heavy: B1 heavy with N288W, S290K
light: not shown
notes: EU numbering; copies: 2 + 2
In turn, B46 gave a dissociation constant Kd of 17 nM.

B47: IgG1-F645 (antibody)
heavy: B1 heavy with S241K, S290K, L330R
light: not shown
notes: EU numbering; copies: 2 + 2
As to B47, the Kd amounted to 33 nM.

B48: IgG1-F683 (antibody)
heavy: B1 heavy with S290E
light: not shown
notes: EU numbering; copies: 2 + 2
The molecule B48 displayed a Kd of 50 nM.

B49: IgG1-F641 (antibody)
heavy: B1 heavy with S290K, Q388K
light: not shown
notes: EU numbering; copies: 2 + 2
The molecule B49 gave a Kd of 30 nM.

B50: IgG1-F672 (antibody)
heavy: B1 heavy with N288M, S290K
light: not shown
notes: EU numbering; copies: 2 + 2
With B50, the Kd was determined as 24 nM.

B51: IgG1-F692 (antibody)
heavy: B1 heavy with S290Q
light: not shown
notes: EU numbering; copies: 2 + 2
B51 displayed an equilibrium dissociation constant (Kd) of 39 nM.

B52: IgG1-F676 (antibody)
heavy: B1 heavy with N288S, S290K
light: not shown
notes: EU numbering; copies: 2 + 2
With B52, the equilibrium dissociation constant (Kd) was found to be 32 nM.

B53: IgG1-F668 (antibody)
heavy: B1 heavy with N288H, S290K
light: not shown
notes: EU numbering; copies: 2 + 2
Consider B53, for which the Kd worked out at 40 nM.

B54: IgG1-F642 (antibody)
heavy: B1 heavy with S241K, S290K, Q388K
light: not shown
notes: EU numbering; copies: 2 + 2
For the molecule B54, binding was characterised by a dissociation constant (Kd) of 30 nM.

B55: IgG1-F667 (antibody)
heavy: B1 heavy with N288G, S290K
light: not shown
notes: EU numbering; copies: 2 + 2
In turn, B55 registered a Kd of 30 nM.
